Data as given in patent US20090083877A1, “Transcription Factors, DNA and Methods for Introduction of Value-Added Seed Traits and Stress Tolerance” (priority 2002, published 2009).
“Also recorded” adds a separate entry of the source. Like-named read-outs stand apart in the source and are kept apart here.

B1: RAV2: Arabidopsis ABI3-Like B3 domain transcription factor, At1g68840, SEQ ID NO 3 and 4 (protein, listed as Arabidopsis thaliana)
chain: MDSSCIDEISSSTSESFSATTAKKLSPPPAAALRLYRMGSGGSSVVLDPENGLETESRKLPSSKYKGVVPQPNGRWGAQIYEKHQRVWLGTFNEQEEAARSYDIAACRFRGRDAVVNFKNVLEDGDLAFLEAHSKAEIVDMLRKHTYADELEQNNKRQLFLSVDANGKRNGSSTTQNDKVLKTREVLFEKAVTPSDVGKLNRLVIPKQHAEKHFPLPSPSPAVTKGVLINFEDVNGKVWRFRYSYWNSSQSYVLTKGWSRFVKEKNLRAGDVVTFERSTGLERQLYIDWKVRSGPRENPVQVVVRLFGVDIFNVTTVKPNDVVAVCGGKRSRDVDDMFALRCSKKQAIINAL
B2: VP1: maize VIVIPAROUS-1 B3-domain transcription factor, SEQ ID NO 1 and 2, expressed from 35S promoter (protein)
chain: MEASSGSSPPHSQENPPEHGGDMGGAPAEEIGGEAADDFMFAEDTFPSLPDFPCLSSPSSSTFSSNSSSNSSSAYTNTAGRAGGEPSEPASAGEGFDALDDIDQLLDFASLSMPWDSEPFPGVSMMLENAMSAPPQPVGDGMSEEKAVPEGTTGGEEACMDASEGEELPRFFMEWLTSNRENISAEDLRGIRLRRSTIEAAAARLGGGRQGTMQLLKLILTWVQNHHLQRKRPRDVMEEEAGLHVQLPSPVANPPGYEFPAGGQDMAAGGGTSWMPHQQAFTPPAAYGGDAVYPSAAGQQYSFHQGPSTSSVVVNSQPFSPPPVGDMHGANMAWPQQYVPFPPPGASTGSYPMPQPFSPGFGGQYAGAGAGHLSVAPQRMAGVEASATKEARKKRMARQRRLSCLQQQRSQQLSLGQIQTSVHLQEPSPRSTHSGPVTPSAGGWGFWSPSSQQQVQNPLSKSNSSRAPPSSLEAAAAAPQTKPAPAGARQDDIHHRLAAASDKRQGAKADKNLRFLLQKVLKQSDVGSLGRIVLPKKEAEVHLPELKTRDGISIPMEDIGTSRVWNMRYRFWPNNKSRMYLLENTGEFVRSNELQEGDFIVIYSDVKSGKYLIRGVKVRPPPAQEQGSGSSGGGKHRPLCPAGPERAAAAGAPEDAVVDGVSGACKGRSPEGVRRVRQQGAGAMSQMAVSI
modifications: Zea mays
B3: AREB3: Arabidopsis ABI5-like bZIP transcription factor, At3g56850 (protein, listed as Arabidopsis thaliana)
chain: MDSQRGIVEQAKSQSLNRQSSLYSLTLDEVQNHLGSSGKALGSMNLDELLKSVCSVEANQPSSMAVNGGAAAQEGLSRQGSLTLPRDLSKKTVDEVWKDIQQNKNGGSAHERRDKQPTLGEMTLEDLLLKAGVVTETIPGSNHDGPVGGGSAGSGAGLGQNITQVGPWIQYHQLPSMPQPQAFMPYPVSDMQAMVSQSSLMGGLSDTQTPGRKRVASGEVVEKTVERRQKRMIKNRESAARSRARKQAYTHELEIKVSRLEEENERLRKQKEVEKILPSVPPPDPKRQLRRTSSAPF
B4: DPBF4/EEL: Arabidopsis ABI5-like bZIP transcription factor, Enhanced Em Level, At2g41070 (protein, listed as Arabidopsis thaliana)
chain: MGSIRGNIEEPISQSLTRQNSLYSLKLHEVQTHLGSSGKPLGSMNLDELLKTVLPPAEEGLVRQGSLTLPRDLSKKTVDEVWRDIQQDKNGNGTSTTTTHKQPTLGEITLEDLLLRAGVVTETVVPQENVVNIASNGQWVEYHHQPQQQQGFMTYPVCEMQDMVMMGGLSDTPQAPGRKRVAGEIVEKTVERRQKRMIKNRESAARSRARKQAYTHELEIKVSRLEEENEKLRRLKEVEKILPSEPPPDPKWKLRRTNSASL

Legend:
[1] = system: ABA-inducible wheat Em promoter; assay: Em-GUS reporter transactivation in transiently transformed rice protoplasts; type: cell-based, Oryza sativa; conditions: for Synergy with exogenous ABA on Em-GUS expression: 100 μM ABA, 16 h; for Transactivation of Em-GUS expression by overexpressed effector: effector overexpressed alone, average of four replicate transformations
Description: Embryonic rice (Oryza sativa) callus cultures (Radon 6 from the International Rice Research Institute, Los Bafios, Phillipines) were obtained. Embryonic rice callus cultures were grown as suspensions in liquid culture as well as on phytagel plates containing MS medium supplemented with 2.0 mg/L 2,4-D. Cultures were propagated and digested for making protoplasts as previously described except that 10 mM HEPES (Sigma, St. Louis, Mo., USA), pH 5.6, was substituted for phosphate in the Krens'F medium, and 2% (weight/volume; w/v) cellulase YC, 0.35% (w/v) macerozyme, and 0.1% (w/v) pectolyase Y23 were used for overnight digestion (Karlan Research Products, Santa Rosa, CA, USA). Protoplasts were transformed with various mixtures of DNA reporter and effector constructs using polyethylene glycol precipitation. Transformed protoplasts were incubated with or without 100 μM ABA for 16 h in the dark in Krens solution before quantifying β-glucuronidase (GUS) and luciferase (LUC) reporter enzyme activities as previously described. ABA was dissolved and stored in absolute ethanol at −20° C. as a 0.1 M stock solution. Prior to use, required dilutions of ABA were made in Krens solution, and control samples received the same volume of solvent as in ABA treatments.
(§1) Plasmid pBM207 contains the wheat (Triticum aestivum) Early Methionine-labeled (Em) promoter driving the expression of GUS, encoded by uida from Escherichia coli. Plasmid pDH359 contains ABI5 cDNA driven by Ubiquitin promoter. Plasmid pCR349.13S contains the 35S promoter driving the VP1 sense cDNA. Plasmid pDirect2.6 contains the Ubi promoter in a reverse orientation and was used as control construct to balance the total amount of input plasmid DNA between various treatments. Plasmid pAHC 18 contains the Ubi promoter driving firefly (Photinus pyralis) LUC cDNA and was included in transformations to provide an internal reference for non-ABA-inducible transient transcription in reporter enzyme assays. ABF1-ABF4, AREB3, and DPBF4 were amplified by PCR using gene-specific primers from an Arabidopsis cDNA library (Minet et al. Plant J. 2:417 (1992)) and were cloned into plasmid pDH349 (Gampala et al. J. Biol. Chem. 277: 1689 (2002)) containing the maize Ubiquitin promoter and nopaline synthase 3′ termination signals.
Simultaneously, it has been shown that ABF2, ABF3 and ABF4 overexpression in transgenic Arabidopsis results in ABA hypersensitivity and other ABA-associated phenotypes such as altered ABA-inducible gene expression and glucose signaling, reduced transpiration, and enhanced drought tolerance. The functional roles of the ABI5-like family members ABF1-ABF4 in regulation of ABA-inducible gene expression in rice protoplasts were tested and the results are shown in FIG. 1. […] Protoplasts were transformed with Em-GUS and a “dummy” effector construct (pD2.6 containing only the Ubiquitin promoter used to drive effector expression) or co-transformed with a Ubi-ABF construct and treated with or without 100 μM ABA. The values shown in FIG. 1A are the average (±S.E.M.) of four replicate transformations.
Rice protoplasts were transformed with either Em-GUS alone or in pairwise combinations of Ubi-ABF3, Ubi-ABI5, or 35S-VP1. The values in FIG. 1B are the average (±S.E.M.) of four replicate transformations. ABF3 is a related member of the ABI5-family of bZIP transcription factors.

[2] = system: ABA-inducible wheat Em promoter; assay: Em-GUS reporter transactivation in transiently transformed maize mesophyll protoplasts; type: cell-based; conditions: for Transactivation of Em-GUS expression by overexpressed effector: effector overexpressed alone
Description: Plant Materials. Maize mesophyll protoplasts were isolated from 20-hr illuminated leaves of 10 day old maize seedlings that had been kept in the dark at 25° C. The middle part of the second leaves (about 6 cm in length) was cut into 0.5 mm strips with a razor blade and digested in an enzyme solution containing 1% (w/v) cellulose RS, 0.1% (w/v) macerozyme R10 (Yakult Honsha, Nishinomiya, Japan), 0.6 M mannitol, 10 mM MES (pH 5.7), 1 mM CaCl2, 1 mM MgCl2, 10 mM β-mercaptoethanol, and 0.1% BSA (w/v) for 3 hr at room temperature. Protoplasts were released by shaking on a rotary shaker at 80 rpm for 10 min and were filtered through a 70 μm nylon filter. Protoplasts were collected by centrifugation at 100 g for 2 min, washed in cold 0.6 M mannitol solution, centrifuged, and resuspended at 2×10^6/mL in cold 0.6 M mannitol. Electroporation conditions were 400 V/cm, 200 μF, 10 msec, and two pulses with a Biorad GenePulser apparatus. Each sample contained 5×10^4 protoplasts and about 50 μg DNA in 0.3 mL of 0.6 M mannitol and 20 mM KCl.
as §1
The values in FIG. 2 are the average (±S.E.M.) of four replicate transformations.
To test the involvement of ABI3-Like B3 domain transcription factors in ABA signaling, ABA-inducible reporter gene transactivation by the B3 domain-containing RAV2 was assayed in maize mesophyll protoplasts transiently co-transformed with a full length cDNA under transcriptional control of the Ubiquitin promoter. Activation of Em-GUS reporter gene expression by RAV2, relative to non-ABA inducible Ubi-LUC reference reporter as internal control, and functional interactions of RAV2 with VP1, ABI5, and the ABI5-Like ABF3 were compared in protoplasts treated with or without 100 uM ABA (see FIG. 3).

| Molecule | Synergy with exogenous ABA on Em-GUS expression [1] | Transactivation of Em-GUS expression by overexpressed effector [1] | Synergy with co-transformed VP1 on Em-GUS expression [2] | Synergy with exogenous ABA on Em-GUS expression [2] | Transactivation of Em-GUS expression by overexpressed effector ([2]; maize mesophyll protoplasts) | other results |
| --- | --- | --- | --- | --- | --- | --- |
| ABI5: Arabidopsis basic leucine zipper (bZIP) domain transcription factor, At2g36270, SEQ ID NO 5 and 6 | acted in synergy with ABA | transactivated the Em promoter | can synergize with co-transformed VP1 | synergize with exogenous ABA | sufficient for transactivation of the Em promoter; also recorded: sufficient for specific Em-GUS transactivation; also recorded: sufficient to transactivate Em-GUS expression |  |
| B1 |  |  |  |  | sufficient for specific Em-GUS transactivation | Effect of ABA on synergism with VP1 [2]: enhanced by ABA; Synergy with ABF3 on Em-GUS expression [2]: synergizes; also recorded: interacts synergistically; Synergy with ABI5 on Em-GUS expression [2]: synergizes; also recorded: interacts synergistically; Synergy with VP1 on Em-GUS expression [2]: act synergistically to activate Em-GUS expression; also recorded: interacts synergistically; Effect of co-transformed ABA-INSENSITIVE-1 dominant negative allele on transactivation ([2]; maize mesophyll protoplasts, data not shown): antagonized |
| B2 | acted in synergy with ABA | transactivated the Em promoter |  |  |  |  |
| B3 |  |  | no functional interactions with VP1 and not | synergize with exogenous ABA | sufficient to transactivate Em-GUS expression |  |
| B4 |  |  |  |  | sufficient to transactivate Em-GUS expression | Synergy with co-transformed VP1 on Em-GUS expression ([2]; maize mesophyll protoplasts, co-transformed with VP1): some antagonism of ABA inducible Em-GUS expression and not; Synergy with exogenous ABA on Em-GUS expression ([2]; maize mesophyll protoplasts, exogenous ABA): synergize with exogenous ABA |
